Drawing on a protein production outcome set (Wang et al. 2014), this text covers protein production for 16 sequences.

A short description of this series: label from the status in PepcDB records.

Regarding “MLKRTLLACLALSCSFPSYSADYITENLSTYMRKGAGDQYKIAGTIQAGEKITVLDRKDRFVLIRDSRNREGWVLNNEISQTASPKELIPELQQQIQDLSSKLNKIDNDWQQRTAEMQRRSQQAEQQSSELLDENTQLKRKLEVLKNKNRDLETMQDAEKREIVIQWFIYGGSVLTVGLLLGLLIPFILPRRRRNNGWSLEHHHHHH”, the protein production entry is “failed”.

Regarding “MLKSQEIRQKAPELDSLRLGSGWKSEELNKAQIIIESSFGHSHPGSAHLDTLVDEAFKSIDDNGGRGAKYFVTDICDGETQGHDGMNYSLASRDIMTNLMEIHVQATPFDAGIFIASCDKAVPAHLMAIARLDMPSILVPGGIMNAGPNMLTLEQIGTYNAQYERGEITKEQYEHYKQNACPSCGACSFMGTASTMQVMSEALGIALPGTALIPVTSKELKLAAKNAGKQILKLIELNIKPSEIMTKKAFENAIMVHAAIAGSSNCLLHIPAIAHELGMDIEPELFDEIHKKIPYILNIRPSGFYPGSYFWNAGGVPAIMEEIKEFLHLDVMTVTGKTLGENLEDLKNSGYYEEHDKLITSLGIKKEDVIRTKENPIQSQGAIAILKGNLAPGGAVVKHSAISKKLMQVVLKARVFNCEEDAIKSVLTKNIKPGDAVFVRYEGPKGSGMPEMFYTTEAIASDHELVDSTALITDGRFSGATRGPAIGHVSPEASEGGPIAFVQEGDLIKIDIPARKLDIIGTNGIEKSEKEIENILKERSQNWVKPAPRYTKGILGLYTRCASSPMKGGYME”, the protein production entry is recorded as “failed”.

“MLKTILSISGKPGLFKLVSHGKNMLIVESLADKKRVPAYAKDKVISLGDIAIYTNEAEVPLHEVLTNVKNKENGQQASVSTSAKPDELRAYFAEILPNFDRERVYPSDIKKLISWYNILIGAGLTEFTPEGSATEEASVKETKKEEA”: the protein production result was “failed”.

As to “MLKTLAVANYRSINKLVIPLGRLNLVTGANGSGKSNLYRALRLLAETAQGGVVNALAKEGGLESTYWAGPEQISRRMSQGEVPIQGGPRKAARRLQLGFAGEDFGYAISLGLPDSSGHFMLPGHSSPIASRFTLDPWIKRESIWGGPLYRSASALVDRQGPMIRARAGRQWEVLAQHTSSGDSLFDRVGNLSSSPEVLHLREQIRGWRFYDHLRTDSQAPARRPQLGTRTPVLHHDGRDLAAALQTIIEVGDQQALHETISDAFPESRLEIDAVPGGLFGVQFYQEGLLRPLSAAELSDGTLRYLLLVAALLTPRPPTLMVLNEPETSLHPDLLPALARLIIRASQQCQVWVVSHARRLIAALQQDPECNCIVLEKQLGQTGIVGQRMLDEPAWNWPDLEHHHHHH”, the protein production result is on record as “failed”.

On to “MLKTLLTSDVIQVVSQAKDWRDAIAISCQPLIDNGAVEARYVEAIYRSHEAIGPYYVVGPGIAMPHARPEDGVNRLSLALTVITEGVTFNAEGNDPVKLLIVLAATDSNSHIEAISQLAQLFDTASDVQALLNAKTPQDILSVIARY”, for which the protein production result was “not failed”.

Consider “MLKYSNHMAFKDLREYIEFMKKKGKLIEVDDEVSVDLEIAEITRKATYAHLPPLLFKRVKNYENWKIVSNIFYSIESLYEIFGTNKLESISEGFLSNLSNMPITFFDKIKSLREILGLGKVMPKAKSPSFKEEKNLDLTKIPAIKTWPKDAGRYLTFSITITKDPETDVHNLSVYRVQILNEKEAIIHWQAFKRGALTAKKYLEKGISKIPIAVVTGVDPAIAFTAASPVPHGIDKYMFAGILRGEGIDVAELDNQLLVPSHSEVVLTGYVDLNDMRLEGPFGDHMGYYTPADYYPVFKLERVYIREDPIFHVTSVGKPPLEDAWIGKAVERIFLPFAKMLVPELIDMNLPEYGLFTGIGIFSIKKYYPGQAKRVMMALWGTGQLSLLKIIIVVDQDIDVHDINQVIYAIAANVDPKRDVWVIENALTDSLDPSVPFPPLGSKLGIDATRKFKEEMGKEWPEEVRSDEVVAKKADQILNKIIKRYQTSLEHHHHHH”, for which the protein production entry was “failed”.

On to “MLLDYDFLLLLNDESGKPTRYYYLLQDFEKDFVAREVAQNKTKRFVKEIIGSEKASKTKNSAIEVSNTKASAMKNETIGSGDLKKVCEKIKSALPFGIISAFKPFKDAFYRDFNHNEQKLLIGAAKSGCIQSSADKLAQLKTRLLYWQDKSVKVDWDKPILIKDFFKGNNYLYRRFCFLLGKHFMDRFLKNNAKASVKDFMSSKEFVAKYRYTPKQNTERAKKLQSYLENKRDFIGFVQALNSLKDNPQDPFLPNEETSFLVFANEPTIVFNLRDYLLVLAQIFNQQAICYCESKCPIELINASPGKDFNKTQDSFPDIKFSTPNQLEQSLNALKNKLAAFFSKHPDKHNGMEFNEIAKTQIEALYMPQSSDGFDDFRKHLEESIKSFIRAKKNRYGFPKIFDVADIEQEERKVIEWREKERASKQSYKQNLQINKIANDLKRDKVVDKRTILSVIDADLDRGFIPPKDLLKQLEKISASLSKDIVIAIKQVEKLELSYALIDNIQHNTLDDTLDFTFIVGDSLSVQSLYVTFDLVIDMDRPMSEQFLNHIGELGSFESRERALEWVRLSQAKLIIETPREALKNAQLSQIEEILTGCIFNGAYRLQNDLKGNRHGNFK”, for which the protein production entry is “failed”.

Regarding “MLLLHNARILDLTDGSTGEPTDVLLSDRVLALGPEAQQQAHSARVRSIDLGGRLLMPGLWDEHVHVGQWALASRRFLVSQTASCETALEEVATHVKRREGSDEPILQGFGFRPSLWGSNPNARQLDAVTGDRAVILVSADLHSSWCNTAAMRKLGIEGDGFLREQTSFDVQTQLSQVNPHVLDGWVGSCSTAAARLGITGIRDMEFSTDVETWLQRKADGRCPLRVEVSVYPERLDEAIAQVLATGQAPATDKPGPSRVAMGPLKVIVDGSMSTRTAWCMDSYPAGAGPDGAGIDSVTPEDLVDLMNRAKTGNLQCAAHAIGDRAAKEVLNAFEVTGISGSIEHAQVLTDADVRRFAALGVRASVQPLHLVDDRDATDVMWSDRADRCFRFADMVRAGTELALGSDAPVSPVDPWGAIRVAVERTGDRRPSWHPEQALTLSQAITASTRHVTQVVTGGPGDVIAVAHNPFDLSGNALAGITSDLTVVGGEVTAAAL”, the protein production entry is given as “failed”.

For “MLLLTPGPTPIPERVQKALLRPMRGHLDPEVLRVNRAIQERLAALFDPGEGALVAALAGSGSLGMEAGLANLDRGPVLVLVNGAFSQRVAEMAALHGLDPEVLDFPPGEPVDPEAVARALKRRRYRMVALVHGETSTGVLNPAEAIGALAKEAGALFFLDAVTTLGMLPFSMRAMGVDYAFTGSQKCLSAPPGLAPIAASLEARKAFTGKRGWYLDLARVAEHWERGGYHHTTPVLLHYALLEALDLVLEEGVAARERRAREVYAWVLEELKARGFRPYPKASPLPTVLVVRPPEGVDADRLVRALYAEGVAVAGGIGPTRGQVLRLGLMGEGARREAYQAFLKALDRALALA”, the protein production result was “not failed”.

In the case of “MLLLWLVVLVLGVAYLAHRRTPPAPALGISAAYLILMGVFSHAPGWLLLVFWLLWLAVALPLALPDLRRRVLSGPLFAWFQKVLPPMSDTEREAIEAGTVWWDGELFSGRPDWQKLLDYPKAQLTEEEQAFVDGPTEELCAMVSDWDIGQRMDLPEEAWAFIKQHGFFGLIIPKEYGGKGFSAFAHSQVVMKLATRSGDLASTVMVPNSLGPAELLLHYGTDEQRQRYLPSLAKGDDIPCFALTGPYAGSDAGGMTDVGIVCKGEWEGREVLGLRLTWEKRYITLGPVATLLGLAFKCHDPDHLLGDEEDLGITLALIPTDTPGVEIGRRHVPLGAAFMNGPNSGKDVFVPLEYIIGGQEMIGKGWMMLMNCLSVGRSISLPAVGTSAGKASSYVSGRYAQVREQFNVPIAAFEGIQEALARIGGNAWLMDSARILTANAVDLGEKPSVLSAILKYHLTERGRECIAHAMDIHGGKGIIMGPNNYLGRSWQGAPIFITVEGANILSRNLMIFGQGAIRCHPYVLKEMELAQREDKDQAAREFDALLVKHIGFAVGNAASSFLLSLSCGHLGNAPGDRISRPYFRALNRLAASFALLADFSMMLLGGELKRKERLSARLGDVLSYLYLGSAALKRYHDLGNPDYLHPLLRWAMEENLGKAEAALEDLLNNFPSRFFGCALKVLVLPFGRRHKGPGDELDAEIAEILGRPDDDPALQAILAGAFLPKDPQDPVGALAHAFDAVRESAALEKTLHKAIKEGRVQPQAGQNPIDAGAAAGVLSAEQAQALHQAEAARRKVIDVDDFAKEELQLADGRIR”, the protein production result is “failed”.

As to “MLLSHAFGLFTHPEDEWVSIKKEHEHPTRLYVAYVVVLAAIAPICAYISTAHFGWSIGSERLIKLTEISALQMSVLTYLAMLVGVFALGYAINWMAKTYGAKEEHVPSNGIALAAYSCTPLFLAGFALLYPVPWFNAVVFLAAACYGAWLMYDGLPIVMGIEKERAVMYGGALLTVALVILVSTRVGSVILWNLGLGPVFVSG”, the protein production result is “failed”.

On to “MLLSSCQSLFSPAYQSTLRPSDNPQTVEQVQKNDPRAQMGAREHPRIVASYGGEYRDAKTERLVARIAGALTAVSENPQQSYRITILNSPAINAFALPGGYLYVTRGLLALANDASEVAAVLSHEMGHVTANHGIERQRREEAEVIASRVVAEVLSSDLAGKQALARGKLRLAAFSRQQELQADVIGVRMLGEAGYDPYASPRFLDSMAAYARFSSADPENDQSLDFLSSHPNTPQRIELARRHARAFGQEGQVGDRGRDWFLDGIDGLLYGDSPQEGYVRGQTFLHGTLGIRFDVPEGFVIDNKVEAVLATGPGDMAIRFDGVADPKQTSLANYLTSGWVAGLLPETVKETQINGLEAATARASADKWDFDVTVIRVGQQIFRFLTAVPKGNTQLDSIANVLRTSFRKMTPQEIASLKPLRVRVVTVKPGETVATMAARMMGTERKLDMFRMINAMSATATLQPGQRVKIISELEHHHHHH”, for which the protein production result was “failed”.

Consider “MLLTATLLGLIAALGILDGRLLGVSMIDRPLVMCALTGLVCGNLHEGILIGATLELIFLGNVAIGAAVPPDVVTGSVLATAFSIMSGRGPEAALTIAIPISMLAQTLGVLVRVVNARFGHMADRYAAQGNTRMVAVMHLGGPTLLYFLSGFLPVFFAILLGSAAVTWFLDAIPAFITNGLVVASKILPALGFALLISMMLSSKLMPYLGLGFLIAAYTKLDIIAIALFAVVLAFIISQFLNTSQQEG”, for which the protein production result is “failed”.

In the case of “MLLTIIYIIAITAEAMTGALSAGRRSMDWFGVILIACVTALGGGSVRDVLLGHYPLTWVKHPEYLVLTCCAALFTILIAKWMRHLRNIFLILDALGLIGFTIIGCQIALQMGHGFVVSAVAGVLTGVSGGILRDILCNDVPLVFRRELYASISFVAVICYWLCLNIGMSLELTVIFTLIFGFVLRLIAIYFGLEMPKFIYQEDDADSASSTDKH”, the protein production entry is “failed”.

For the sequence “MLLTREYIDKAFWQKLIAIGLPVSLQSMLFALLGVVDIFMVSLLGESATAAVGVGNRIFFFNLAVVFGLCGAVTVLASQYYGSGNMAGIRRTLAQSWCISILVTLPFIVLYAIFDEEIVSFMSDDPEYVTYARDYLVVTGFSLIATAIVVPIEAVLRSVGQTKLATNVSISAIVVNAVLNSVLIFGLFGFPQWGVFGAAVGTFVSRFFQTAVLIYFFYNRYAHLIPTKFDWAQGRLKQYRQKYFKVSLPMLVHDALWTGGLIVYSIIYGQLGVSELAIISFLSPIEGVLISTFMGFAVAASVLLGNDIGAKHYDRVEKTAWWYVLTSAILATLLFFLVWLSSPLIHHLLVLSPLTDAEMALNVCLVMALGMILRVFNMVGIGGVLKSGADIRYSIFIDTFGQWAIGIPLTYYTGMVLGLPLHFVLMSLLAEEFVKGVLTTYRIQSKRWINNMVEDDQTVTA”, the protein production result is on record as “failed”.

For “MLLYVLIISNDKKLIEEARKMAEKANLELRTVKTEDELKKYLEEFRKESQNIKVLILVSNDEELDKAKELAQKMEIDVRTRKVTSPDEAKRWIKEFSEEGGSLEHHHHHH”, the protein production result was “not failed”.
